7 substances from patent US20250290928A1, “METHOD, KIT AND DEVICE FOR DETECTING EXTRACELLULAR VESICLES” (priority 2022, published 2025) can be followed below.

No end group written: not given here. *: point of attachment. 5FAM = O=C1OC2(c3ccc(O)cc3Oc3cc(O)ccc32)c2ccc(C(=O)*)cc21; TF3 = Tide Fluor 3, fluorescent dye; TQ2 = quencher; TQ3 = quencher

The target of assay [1] is T1, MMP14 in the MDA-MB-231-derived extracellular vesicles (Homo sapiens, UniProt P50281).
T1 construct: in terms of intact MMP14 with a molecular weight of 70 kDa
In words: Evaluation of MMP14 activity of MDA-MB-231-derived extracellular vesicles with 96-well plate. The class given is biochemical. As for the experimental part:
A relative fluorescence unit difference ΔRFU was calculated by subtracting the measured value of the sample for BG measurement from the measured value of each of the samples.
The concentration of the solution is 41.7 μg/mL. The concentration of the solution was set to x1, and 2-fold serial dilution was performed to prepare standard samples with six concentrations.
50 μL of the MMP14 detection solution was added to 50 μL of each of the samples, a reaction was performed at 37° C., and MMP14 activity was evaluated.
The concentration of the solution is 10 μg/mL.
50 μL of each of the MMP14 detection solutions was added to 50 μL of each of the samples, a reaction was performed at 37° C., and MMP14 activity was evaluated. […]
The concentration of the solution is 20 μg/mL. The concentration of the solution was set to x1, and 3-fold serial dilution was performed to prepare standard samples with three concentrations.
The concentration of the solution is 8 μg/mL.
50 μL of each of the MMP14 detection solutions was added to 50 μL of the sample, a reaction was performed at 37° C., and MMP14 activity was evaluated. […]
50 μL of the MMP14 detection solution was added to 50 μL of each of the samples, a reaction was performed at 30° C., and MMP14 activity was evaluated.
The MMP14 activity of the extracellular vesicles was evaluated with a 96-well plate (137101). A fluorescence intensity was measured with a fluorescence plate reader (Synergy) at 30° C. every 5 minutes for 2 hours. For measurement wavelengths, an excitation wavelength of 545±20 nm and a fluorescence wavelength of 588±20 nm were used. A relative fluorescence unit difference (ΔRFU) was calculated by subtracting the measured value of the sample for BG measurement from the measured value of each of the samples.
50 μL of each of the MMP14 detection solutions was added to 50 μL of each of the samples, a reaction was performed at 30° C., and MMP14 activity was evaluated.

Assay [2] concerns the target T1, MMP14 in the MDA-MB-231-derived extracellular vesicles. In words: Digital detection of MDA-MB-231-derived extracellular vesicles through MMP14 activity in wells (microcompartments). The class given is biochemical. The conditions noted are these: for Expected value λ / Number of positives / Positive ratio: reporter 5 μM, 30° C. As for the experimental part:
The concentration of the solution is 6.7 μg/mL.
100 μL of the MMP14 detection solution was added to 100 μL of the sample to provide a reaction solution for wells. […] 100 μL of 200 μL of the prepared reaction solution for wells was used in the measurement of MMP14 activity with a 96-well plate.
Next, the wells were filled with the reaction solution by leaving the well array 200 to stand under reduced pressure to degas the space 205. After that, the space 205 was fed with hydrophobic solvents to be sealed. Fluorinated oils AsahiKlin AE-3000 (manufactured by AGC Inc.) and Fomblin Y-25 (manufactured by Solvay S.A.) were used as the hydrophobic solvents. A fluorinated oil Simoa (trademark) SR-X Sealing Oil: 102767 (manufactured by Quanterix Corporation) was further used as another hydrophobic solvent.
Well diameter: 4.25 μm Well depth: 3.25 μm Well capacity: 50 fL Number of wells in array: 239,000 Array range: 3 mm×4 mm
The concentration of the solution is 20 μg/mL. […] The concentration of the solution was set to x1, and 10-fold serial dilution was performed to prepare standard samples with five concentrations.
Next, the wells were filled with the reaction solution by leaving the well array 200 to stand under reduced pressure to degas the space 205. After that, the space 205 was fed with hydrophobic solvents to be sealed.
The concentration of the solution is 20 μg/mL. […] The concentration of the solution was set to x1, and 3-fold serial dilution was performed to prepare standard samples with three concentrations.
The concentration of the solution is 20 μg/mL. […] The concentration of the solution was set to x1, and 2-fold serial dilution was performed to prepare standard samples with four concentrations.
The concentration of the solution is 5 μg/mL.
50 μL of the MMP14 detection solution was added to 50 μL of the sample to provide a reaction solution for wells.
50 μL of each of the MMP14 detection solutions was added to 50 μL of the sample to provide a reaction solution for wells.
The concentration of the solution is 6.7 µg/mL.

Where [3] appears, read: Example 42, EV 2.5 μg/mL, 4 hr, TRITC filter.
Where [4] appears, read: Example 42, EV 2.5 μg/mL, 24 hr, TRITC filter.
[5] abbreviates: Example 38, 4 hr, at a concentration of x1, 50 fL.
Where [6] appears, read: Example 38, 24 hr, at a concentration of x1, 50 fL.
The mark [7] stands for this setting: Example 38, EV 2.5 μg/mL, 24 hr.
[8] abbreviates: Example 37, EV 5 μg/mL, reporter 5 μM, buffer (4).
The mark [9] stands for this setting: MP, 1.25 μM with 5 μM Custom #2TF3.
Setting [10] is: MP, 2.5 μM with 2.5 μM Custom #2TF3.

With “MCA-Pro-Leu-Ala-Cys(p-OMeBz)-Trp-Ala-Arg(Dpa)-NH2 [MMP-14 Substrate I]”, in assay [1] (Example 3, EV 5 μg/mL, reporter 10, 5 or 2.5 μM, 37° C., 2 hours), the “detection of MMP14 activity (fluorescence intensity increased with the reaction time)” value is reported as “MMP14 activity was able to be detected”.
Take TF3-GGPLGLAGGK(TQ3) [Custom #2TF3]: the “Expected value λ” value is listed as 0.1432 in assay [2] (setting [3]) and 0.1447 in assay [2] (setting [4]). Further, the Number of positives is 3,746 in assay [2] (setting [3]) and 3,783 in assay [2] (setting [4]). Moreover, the figures for the Positive ratio in assay [2] (setting [3]) and in assay [2] (setting [4]) were 0.1334 and 0.1347, respectively. Besides, the “Expected value λ (×1)” value in assay [2] (single reporter, reaction 4 hr, at EV concentration x1) came to 0.5727; in assay [2] (single reporter, reaction 24 hr, at EV concentration x1), 0.5788. The Extracellular vesicle concentration in assay [2] (single reporter, reaction 4 hr, at x1, from λ (×1) and 50 fL microcompartment) worked out at 1.1454e+10 mL⁻¹; in assay [2] (single reporter, reaction 24 hr, at x1, from λ (×1) and 50 fL microcompartment), 1.1576e+10 mL⁻¹. The “Fluorescence change after 2 hours of reaction at 30° C.” value (shortened to “Fluorescence change after 2 hours”) in assay [1] (Example 41, EV 5 μg/mL, reporter 5 μM, buffer (4), excitation 545±20 nm, fluorescence 588±20 nm) is on record as 3,791 ΔRFU; in assay [1] (MP, 2.5 μM Custom #2TF3 with 2.5 μM Custom #11) it was 313 ΔRFU; in assay [1] (MP, 2.5 μM Custom #2TF3 with 2.5 μM Custom #12) it was 319 ΔRFU; in assay [1] (MP, 2.5 μM Custom #2TF3 with 2.5 μM Custom #13), 452 ΔRFU; in assay [1] (MP, 2.5 μM Custom #2TF3 with 2.5 μM Custom #14), 397 ΔRFU; in assay [1] (MP, 2.5 μM Custom #2TF3 with 2.5 μM Custom #15) it was 551 ΔRFU. Moreover, the “Fluorescence change after 2 hours” value is on record as 1,085 ΔRFU in assay [1] (MP, 2.5 μM Custom #2TF3 with 2.5 μM Custom #16); 772 ΔRFU in assay [1] (MP, 5 μM Custom #2TF3 with 1.25 μM Custom #11); 618 ΔRFU in assay [1] (MP, 5 μM Custom #2TF3 with 1.25 μM Custom #12); 814 ΔRFU in assay [1] (MP, 5 μM Custom #2TF3 with 1.25 μM Custom #13); 714 ΔRFU in assay [1] (MP, 5 μM Custom #2TF3 with 1.25 μM Custom #14); 1,023 ΔRFU in assay [1] (MP, 5 μM Custom #2TF3 with 1.25 μM Custom #15). Further, in assay [1] (MP, 5 μM Custom #2TF3 with 1.25 μM Custom #16), the “Fluorescence change after 2 hours” value is 1,857 ΔRFU.
Consider “TQ2-DLPAGLQARK(5-FAM) (TQ2-DLPAGLQARK(5FAM)) [Custom #14]”, for which the “Expected value λ (×1)” value in assay [2] (Example 38, 4 hr) was found to be 0.9841; in assay [2] (Example 38, 24 hr), 1.5709. Further, the values for the Extracellular vesicle concentration in assay [2] (setting [5]) and in assay [2] (setting [6]) were 1.968e+10 mL⁻¹ and 3.142e+10 mL⁻¹, respectively. Further, the “Expected value λ” value in assay [2] (Example 38, EV 2.5 μg/mL, 4 hr) amounted to 0.246; in assay [2] (setting [7]), 0.3927. In addition, the Number of positives in assay [2] (Example 38, EV 2.5 μg/mL, 4 hr) was 6,120; in assay [2] (setting [7]), 9,120. For the same substance, the Positive ratio in assay [2] (Example 38, EV 2.5 μg/mL, 4 hr) is given as 0.2181; in assay [2] (setting [7]) it was 0.3248. The “Fluorescence change after 2 hours” value is given as 34,878 ΔRFU in assay [1] (setting [8]), 9,504 ΔRFU in assay [1] (setting [9]) and 14,104 ΔRFU in assay [1] (setting [10]).
In the case of “TQ2-FMPLGLRGIK(5-FAM) (TQ2-FMPLGLRGIK(5FAM)) [Custom #12]”, the “Expected value λ (×1)” value in assay [2] (Example 38, 4 hr) is 0.5189; in assay [2] (Example 38, 24 hr), 1.232. Further, the Extracellular vesicle concentration was determined as 1.0377e+10 mL⁻¹ in assay [2] (setting [5]) and 2.464e+10 mL⁻¹ in assay [2] (setting [6]). For the same substance, the “Expected value λ” value turned out to be 0.1297 in assay [2] (Example 38, EV 2.5 μg/mL, 4 hr) and 0.308 in assay [2] (setting [7]). Also, the Number of positives is reported as 3,416 in assay [2] (Example 38, EV 2.5 μg/mL, 4 hr) and 7,423 in assay [2] (setting [7]). Besides, the Positive ratio turned out to be 0.1216 in assay [2] (Example 38, EV 2.5 μg/mL, 4 hr) and 0.2651 in assay [2] (setting [7]). Further, the “Fluorescence change after 2 hours” value is on record as 32,801 ΔRFU in assay [1] (setting [8]), 13,343 ΔRFU in assay [1] (setting [9]) and 19,102 ΔRFU in assay [1] (setting [10]).
Regarding “TQ2-LAPLGLQRRK(5-FAM) (TQ2-LAPLGLQRRK(5FAM)) [Custom #11]”, the “Expected value λ (×1)” value in assay [2] (Example 38, 4 hr) is reported as 0.5433; in assay [2] (Example 38, 24 hr), 1.166. For the same substance, the Extracellular vesicle concentration in assay [2] (setting [5]) was found to be 1.087e+10 mL⁻¹; in assay [2] (setting [6]), 2.3319e+10 mL⁻¹. For the same substance, the “Expected value λ” value in assay [2] (Example 38, EV 2.5 μg/mL, 4 hr) is recorded as 0.1358; in assay [2] (setting [7]) it was 0.2915. Besides, the Number of positives is recorded as 3,566 in assay [2] (Example 38, EV 2.5 μg/mL, 4 hr) and 7,100 in assay [2] (setting [7]). Further, the Positive ratio in assay [2] (Example 38, EV 2.5 μg/mL, 4 hr) worked out at 0.127; in assay [2] (setting [7]), 0.2529. Besides, the “Fluorescence change after 2 hours” value is 33,665 ΔRFU in assay [1] (setting [8]), 12,156 ΔRFU in assay [1] (setting [9]) and 18,065 ΔRFU in assay [1] (setting [10]).
With “TQ2-WPHGSLQAAK(5-FAM) (TQ2-WPHGSLQAAK(5FAM)) [Custom #16]”, the “Expected value λ (×1)” value was 0.06766 in assay [2] (Example 38, 4 hr) and 0.3923 in assay [2] (Example 38, 24 hr). Moreover, the Extracellular vesicle concentration was 1.353e+09 mL⁻¹ in assay [2] (setting [5]) and 7.845e+09 mL⁻¹ in assay [2] (setting [6]). The “Expected value λ” value in assay [2] (Example 38, EV 2.5 μg/mL, 4 hr) stood at 0.01692; in assay [2] (setting [7]) it was 0.09807. Moreover, the Number of positives in assay [2] (Example 38, EV 2.5 μg/mL, 4 hr) was 471; in assay [2] (setting [7]) it was 2,623. Also, the Positive ratio is 0.01677 in assay [2] (Example 38, EV 2.5 μg/mL, 4 hr) and 0.09341 in assay [2] (setting [7]). Further, the “Fluorescence change after 2 hours” value in assay [1] (setting [8]) is recorded as 4,424 ΔRFU; in assay [1] (setting [9]), 852 ΔRFU; in assay [1] (setting [10]) it was 1,489 ΔRFU.
For “TQ2-WYPAGLRMVK(5-FAM) (TQ2-WYPAGLRMVK(5FAM)) [Custom #13]”, the “Expected value λ (×1)” value came to 0.5455 in assay [2] (Example 38, 4 hr) and 1.05 in assay [2] (Example 38, 24 hr). Also, the Extracellular vesicle concentration in assay [2] (setting [5]) came to 1.091e+10 mL⁻¹; in assay [2] (setting [6]), 2.101e+10 mL⁻¹. Further, the “Expected value λ” value is 0.1364 in assay [2] (Example 38, EV 2.5 μg/mL, 4 hr) and 0.2626 in assay [2] (setting [7]). Moreover, the Number of positives was 3,573 in assay [2] (Example 38, EV 2.5 μg/mL, 4 hr) and 6,485 in assay [2] (setting [7]). For the same substance, the Positive ratio in assay [2] (Example 38, EV 2.5 μg/mL, 4 hr) is 0.1275; in assay [2] (setting [7]), 0.2309. In addition, the “Fluorescence change after 2 hours” value in assay [1] (setting [8]) is 19,279 ΔRFU; in assay [1] (setting [9]), 7,073 ΔRFU; in assay [1] (setting [10]) it was 9,939 ΔRFU.
